This note sets out measurements from IntAct's records for PubMed 25910212.

B1: Iodotyrosine deiodinase 1 (Homo sapiens), Q6PHW0 (parent)
chain: MYFLTPILVAILCILVVWIFKNADRSMEKKKGEPRTRAEARPWVDEDLKDSSDLHQAEEDADEWQESEENVEHIPFSHNHYPEKEMVKRSQEFYELLNKRRSVRFISNEQVPMEVIDNVIRTAGTAPSGAHTEPWTFVVVKDPDVKHKIRKIIEEEEEINYMKRMGHRWVTDLKKLRTNWIKEYLDTAPILILIFKQVHGFAANGKKKVHYYNEISVSIACGILLAALQNAGLVTVTTTPLNCGPRLRVLLGRPAHEKLLMLLPVGYPSKEATVPDLKRKPLDQIMVTV
partner: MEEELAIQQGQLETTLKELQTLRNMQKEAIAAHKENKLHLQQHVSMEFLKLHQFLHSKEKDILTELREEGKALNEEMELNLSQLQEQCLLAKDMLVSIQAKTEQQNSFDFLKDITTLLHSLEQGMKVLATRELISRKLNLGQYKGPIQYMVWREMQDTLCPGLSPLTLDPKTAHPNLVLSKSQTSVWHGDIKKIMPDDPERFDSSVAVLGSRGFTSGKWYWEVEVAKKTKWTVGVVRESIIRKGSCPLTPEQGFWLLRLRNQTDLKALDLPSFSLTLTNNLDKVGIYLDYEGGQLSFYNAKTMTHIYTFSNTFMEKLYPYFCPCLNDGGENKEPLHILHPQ
B2: Nuclear receptor subfamily 0 group B member 1 (Homo sapiens), P51843 (parent)
chain: MAGENHQWQGSILYNMLMSAKQTRAAPEAPETRLVDQCWGCSCGDEPGVGREGLLGGRNVALLYRCCFCGKDHPRQGSILYSMLTSAKQTYAAPKAPEATLGPCWGCSCGSDPGVGRAGLPGGRPVALLYRCCFCGEDHPRQGSILYSLLTSSKQTHVAPAAPEARPGGAWWDRSYFAQRPGGKEALPGGRATALLYRCCFCGEDHPQQGSTLYCVPTSTNQAQAAPEERPRAPWWDTSSGALRPVALKSPQVVCEAASAGLLKTLRFVKYLPCFQVLPLDQQLVLVRNCWASLLMLELAQDRLQFETVEVSEPSMLQKILTTRRRETGGNEPLPVPTLQHHLAPPAEARKVPSASQVQAIKCFLSKCWSLNISTKEYAYLKGTVLFNPDVPGLQCVKYIQGLQWGTQQILSEHTRMTHQGPHDRFIELNSTLFLLRFINANVIAELFFRPIIGTVSMDDMMLEMLCTKI
B3: U4/U6 small nuclear ribonucleoprotein Prp31 (Homo sapiens), Q8WWY3 (parent)
chain: MSLADELLADLEEAAEEEEGGSYGEEEEEPAIEDVQEETQLDLSGDSVKTIAKLWDSKMFAEIMMKIEEYISKQAKASEVMGPVEAAPEYRVIVDANNLTVEIENELNIIHKFIRDKYSKRFPELESLVPNALDYIRTVKELGNSLDKCKNNENLQQILTNATIMVVSVTASTTQGQQLSEEELERLEEACDMALELNASKHRIYEYVESRMSFIAPNLSIIIGASTAAKIMGVAGGLTNLSKMPACNIMLLGAQRKTLSGFSSTSVLPHTGYIYHSDIVQSLPPDLRRKAARLVAAKCTLAARVDSFHESTEGKVGYELKDEIERKFDKWQEPPPVKQVKPLPAPLDGQRKKRGGRRYRKMKERLGLTEIRKQANRMSFGEIEEDAYQEDLGFSLGHLGKSGSGRVRQTQVNEATKARISKTLQRTLQKQSVVYGGKSTIRDRSSGTASSVAFTPLQGLEIVNPQAAEKKVAEANQKYFSSMAEFLKVKGEKSGLMST
partner: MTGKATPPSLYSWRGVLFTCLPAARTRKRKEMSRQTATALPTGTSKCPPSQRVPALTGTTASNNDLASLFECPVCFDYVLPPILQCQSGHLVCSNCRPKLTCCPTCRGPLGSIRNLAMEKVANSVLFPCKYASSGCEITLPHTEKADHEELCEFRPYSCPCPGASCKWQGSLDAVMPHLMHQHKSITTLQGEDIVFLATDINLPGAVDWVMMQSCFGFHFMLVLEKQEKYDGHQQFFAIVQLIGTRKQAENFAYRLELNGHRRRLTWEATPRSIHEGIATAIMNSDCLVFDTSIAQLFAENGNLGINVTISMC
B4: Regulator of G-protein signaling 2 (Homo sapiens), P41220 (parent)
chain: MQSAMFLAVQHDCRPMDKSAGSGHKSEEKREKMKRTLLKDWKTRLSYFLQNSSTPGKPKTGKKSKQQAFIKPSPEEAQLWSEAFDELLASKYGLAAFRAFLKSEFCEENIEFWLACEDFKKTKSPQKLSSKARKIYTDFIEKEAPKEINIDFQTKTLIAQNIQEATSGCFTTAQKRVYSLMENNSYPRFLESEFYQDLCKKPQITTEPHAT
B5: Acetylcholine receptor subunit gamma (Homo sapiens), P07510-2 (parent)
chain: MHGGQGPLLLLLLLAVCLGAQGRNQEERLLADLMQNYDPNLRPAERDSDVVNVSLKLTLTNLISLNEREEALTTNVWIEMQWCDYRLRWDPRDYEGLWVLRVPSTMVWRPDIVLENKSQTYSTNEIDLQLSQEDGQTIEWIFIDPEAFTENGEWAIQHRPAKMLLDPAAPAQEAGHQKVVFYLLIQRKPLFYVINIIAPCVLISSVAILIHFLPAKAGGQKCTVAINVLLAQTVFLFLVAKKVPETSQAVPLISKYLTFLLVVTILIVVNAVVVLNVSLRSPHTHSMARGVRKVFLRLLPQLLRMHVRPLAPAAVQDTQSRLQNGSSGWSITTGEEVALCLPRSELLFQQWQRQGLVAAALEKLEKGPELGLSQFCGSLKQAAPAIQACVEACNLIACARHQQSHFDNGNEEWFLVGRVLDRVCFLAMLSLFICGTAGIFLMAHYNRVPALPFPGDPRPYLPSPD
partner: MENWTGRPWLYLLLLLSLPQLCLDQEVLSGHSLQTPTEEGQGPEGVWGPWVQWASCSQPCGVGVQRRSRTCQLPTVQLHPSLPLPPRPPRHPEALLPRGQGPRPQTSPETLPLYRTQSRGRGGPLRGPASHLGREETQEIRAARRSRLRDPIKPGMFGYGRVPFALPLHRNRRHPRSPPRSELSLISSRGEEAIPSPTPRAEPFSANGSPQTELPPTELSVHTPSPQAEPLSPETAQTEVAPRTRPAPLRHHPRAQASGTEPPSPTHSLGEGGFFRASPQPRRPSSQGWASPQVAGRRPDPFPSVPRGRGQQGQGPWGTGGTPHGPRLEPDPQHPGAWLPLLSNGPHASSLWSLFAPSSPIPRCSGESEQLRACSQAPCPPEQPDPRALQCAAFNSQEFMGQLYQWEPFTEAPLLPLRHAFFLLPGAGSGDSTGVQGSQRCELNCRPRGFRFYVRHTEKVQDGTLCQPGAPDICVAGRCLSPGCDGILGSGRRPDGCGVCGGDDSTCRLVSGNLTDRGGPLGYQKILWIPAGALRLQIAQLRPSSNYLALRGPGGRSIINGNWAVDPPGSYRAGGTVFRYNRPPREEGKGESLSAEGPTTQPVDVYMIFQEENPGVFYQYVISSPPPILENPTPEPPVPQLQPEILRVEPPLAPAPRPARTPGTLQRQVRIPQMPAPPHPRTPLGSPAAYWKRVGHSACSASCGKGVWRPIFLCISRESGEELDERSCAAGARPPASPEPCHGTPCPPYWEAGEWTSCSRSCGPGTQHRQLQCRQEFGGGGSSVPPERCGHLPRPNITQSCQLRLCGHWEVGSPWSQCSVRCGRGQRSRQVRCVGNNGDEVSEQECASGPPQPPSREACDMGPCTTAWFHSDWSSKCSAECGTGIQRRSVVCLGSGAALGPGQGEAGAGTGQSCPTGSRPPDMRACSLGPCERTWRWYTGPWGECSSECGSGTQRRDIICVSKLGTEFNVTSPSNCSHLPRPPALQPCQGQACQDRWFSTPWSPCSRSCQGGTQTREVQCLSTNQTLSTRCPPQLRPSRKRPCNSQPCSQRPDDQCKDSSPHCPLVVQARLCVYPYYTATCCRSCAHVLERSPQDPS
B6: U4/U6 small nuclear ribonucleoprotein Prp31 (Homo sapiens), Q8WWY3 (parent)
chain: B3 chain
partner: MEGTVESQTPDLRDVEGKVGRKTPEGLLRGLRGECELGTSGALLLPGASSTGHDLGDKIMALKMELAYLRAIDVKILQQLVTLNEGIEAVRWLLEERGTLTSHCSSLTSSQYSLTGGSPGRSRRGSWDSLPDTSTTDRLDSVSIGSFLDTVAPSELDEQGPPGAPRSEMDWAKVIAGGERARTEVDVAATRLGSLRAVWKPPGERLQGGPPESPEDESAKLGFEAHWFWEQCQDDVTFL
B7: AMP deaminase 3 (Homo sapiens), Q01432 (parent)
chain: MPRQFPKLNISEVDEQVRLLAEKVFAKVLREEDSKDALSLFTVPEDCPIGQKEAKERELQKELAEQKSVETAKRKKSFKMIRSQSLSLQMPPQQDWKGPPAASPAMSPTTPVVTGATSLPTPAPYAMPEFQRVTISGDYCAGITLEDYEQAAKSLAKALMIREKYARLAYHRFPRITSQYLGHPRADTAPPEEGLPDFHPPPLPQEDPYCLDDAPPNLDYLVHMQGGILFVYDNKKMLEHQEPHSLPYPDLETYTVDMSHILALITDGPTKTYCHRRLNFLESKFSLHEMLNEMSEFKELKSNPHRDFYNVRKVDTHIHAAACMNQKHLLRFIKHTYQTEPDRTVAEKRGRKITLRQVFDGLHMDPYDLTVDSLDVHAGRQTFHRFDKFNSKYNPVGASELRDLYLKTENYLGGEYFARMVKEVARELEESKYQYSEPRLSIYGRSPEEWPNLAYWFIQHKVYSPNMRWIIQVPRIYDIFRSKKLLPNFGKMLENIFLPLFKATINPQDHRELHLFLKYVTGFDSVDDESKHSDHMFSDKSPNPDVWTSEQNPPYSYYLYYMYANIMVLNNLRRERGLSTFLFRPHCGEAGSITHLVSAFLTADNISHGLLLKKSPVLQYLYYLAQIPIAMSPLSNNSLFLEYSKNPLREFLHKGLHVSLSTDDPMQFHYTKEALMEEYAIAAQVWKLSTCDLCEIARNSVLQSGLSHQEKQKFLGQNYYKEGPEGNDIRKTNVAQIRMAFRYETLCNELSFLSDAMKSEEITALTN
B8: Beta-crystallin A4 (Homo sapiens), P53673 (parent)
chain: MTLQCTKSAGPWKMVVWDEDGFQGRRHEFTAECPSVLELGFETVRSLKVLSGAWVGFEHAGFQGQQYILERGEYPSWDAWGGNTAYPAERLTSFRPAACANHRDSRLTIFEQENFLGKKGELSDDYPSLQAMGWEGNEVGSFHVHSGAWVCSQFPGYRGFQYVLECDHHSGDYKHFREWGSHAPTFQVQSIRRIQQ
partner: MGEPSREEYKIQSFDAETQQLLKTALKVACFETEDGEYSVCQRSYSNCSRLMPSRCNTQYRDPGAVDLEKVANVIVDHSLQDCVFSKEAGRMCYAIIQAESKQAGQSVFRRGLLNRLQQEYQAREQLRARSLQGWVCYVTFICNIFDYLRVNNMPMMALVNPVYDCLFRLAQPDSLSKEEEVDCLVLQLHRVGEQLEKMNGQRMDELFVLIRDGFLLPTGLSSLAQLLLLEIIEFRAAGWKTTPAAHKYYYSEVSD

In the first experiment the parent is B1. The settings on record: with TRIM69, Q86WT6-2.
As to R101W, the “effect of a mutation on the interaction” value is on record as “with no effect”.

In a further experiment the parent is B2. The settings on record: with stf1_human NR5A1, Q13285.
Sequence of stf1_human NR5A1, Q13285 (Q13285 whole entry): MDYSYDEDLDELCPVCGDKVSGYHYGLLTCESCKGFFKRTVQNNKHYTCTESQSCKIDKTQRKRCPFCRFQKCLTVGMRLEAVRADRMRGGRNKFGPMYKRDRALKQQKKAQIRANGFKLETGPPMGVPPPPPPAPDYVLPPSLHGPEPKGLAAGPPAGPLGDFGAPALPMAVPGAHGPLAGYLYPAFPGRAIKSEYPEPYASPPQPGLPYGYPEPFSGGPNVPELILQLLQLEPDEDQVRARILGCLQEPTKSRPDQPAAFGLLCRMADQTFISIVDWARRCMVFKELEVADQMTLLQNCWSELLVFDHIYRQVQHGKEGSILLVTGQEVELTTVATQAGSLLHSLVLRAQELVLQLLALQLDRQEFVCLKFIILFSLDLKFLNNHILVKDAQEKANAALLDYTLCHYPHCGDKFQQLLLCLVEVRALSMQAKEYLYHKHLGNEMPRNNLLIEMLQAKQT
As for W105C, the “effect of a mutation on the interaction” value was “with no effect”.

Variants of B3 are the subject of a further experiment. The conditions noted are these: with SIAH1, Q8IUQ4-2.
Consider L107V, for which the “effect of a mutation on the interaction” value is on record as “with no effect”.

The variants in the next experiment derive from B4. The settings on record: with MTUS2, Q5JR59-3.
Sequence of MTUS2, Q5JR59-3 (Q5JR59 other isoform, or with tags, fused parts or gaps): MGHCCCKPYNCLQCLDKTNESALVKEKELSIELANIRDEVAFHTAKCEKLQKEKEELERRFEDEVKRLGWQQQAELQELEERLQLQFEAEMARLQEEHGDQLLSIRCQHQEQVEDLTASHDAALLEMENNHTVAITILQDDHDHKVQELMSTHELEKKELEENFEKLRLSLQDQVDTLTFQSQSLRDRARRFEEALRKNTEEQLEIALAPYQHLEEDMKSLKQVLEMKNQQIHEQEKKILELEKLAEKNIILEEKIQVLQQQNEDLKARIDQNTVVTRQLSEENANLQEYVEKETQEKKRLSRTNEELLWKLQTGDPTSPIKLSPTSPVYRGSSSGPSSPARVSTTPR
Turning to R44H, the “effect of a mutation on the interaction” value is listed as “with no effect”.
As for Q2R, the “effect of a mutation on the interaction” value is “with no effect”.
The same measure, in the same setting: next, Q2L: “with no effect”.

The variants in a further experiment derive from B5. The conditions noted are these: with ADAMTSL4, Q6UY14-3.
Consider V107G, for which the “effect of a mutation on the interaction” value was “disrupting interaction strength”.
Still for that read-out and setting: next, R187C: “disrupting interaction strength”.
Same read-out and setting: next, R86C: “disrupting interaction strength”.

In another experiment the parent is B6. The conditions noted are these: with lura1_human LURAP1, Q96LR2.
For L107V, the “effect of a mutation on the interaction” value was “with no effect”.

In the next experiment the parent is B7. The conditions noted are these: with hs90b_human HSP90AB1, P08238.
Sequence of hs90b_human HSP90AB1, P08238 (P08238 whole entry): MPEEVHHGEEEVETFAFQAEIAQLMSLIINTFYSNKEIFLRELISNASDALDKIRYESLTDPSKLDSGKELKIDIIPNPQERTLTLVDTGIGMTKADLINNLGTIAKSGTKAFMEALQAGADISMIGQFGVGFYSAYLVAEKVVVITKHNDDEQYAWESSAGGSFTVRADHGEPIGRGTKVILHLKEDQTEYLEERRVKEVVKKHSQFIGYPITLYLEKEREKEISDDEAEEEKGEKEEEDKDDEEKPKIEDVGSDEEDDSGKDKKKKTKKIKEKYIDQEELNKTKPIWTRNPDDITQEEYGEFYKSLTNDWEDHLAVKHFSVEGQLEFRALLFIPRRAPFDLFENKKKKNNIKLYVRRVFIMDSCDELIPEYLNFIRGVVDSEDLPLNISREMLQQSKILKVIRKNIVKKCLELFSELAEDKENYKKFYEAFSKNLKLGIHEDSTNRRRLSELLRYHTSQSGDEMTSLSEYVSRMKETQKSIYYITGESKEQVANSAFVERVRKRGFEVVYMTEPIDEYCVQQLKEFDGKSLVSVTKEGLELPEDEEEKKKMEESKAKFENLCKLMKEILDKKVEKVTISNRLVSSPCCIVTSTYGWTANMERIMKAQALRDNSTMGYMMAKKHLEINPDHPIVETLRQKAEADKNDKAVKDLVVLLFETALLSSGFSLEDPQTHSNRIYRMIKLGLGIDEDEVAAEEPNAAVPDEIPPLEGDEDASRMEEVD
As for W450R, the “effect of a mutation on the interaction” value was “increasing interaction strength”.
For the variant A320V, the “effect of a mutation on the interaction” value is “increasing interaction strength”.

In another experiment the parent is B8. The settings on record: with MIF4GD.
As to V36M, the “effect of a mutation on the interaction” value is recorded as “disrupting interaction strength”.
On the same count and under the same terms, for F94S the value was “disrupting interaction strength”; for L69P, “disrupting interaction strength”.
